Target: FLAG-YAP tagged with a nuclear exclusion sequence (NES) (human) (UniProt P46937)
Experiment: co-IP

- fold association relative to WT YAP: 2 fold
Substance: IQGAP1 (from UniProt Q9JKF1 1-1657) (natural protein)
